What was measured:
human Sdc2 [1] = target: T1, human Sdc2 (human, UniProt P34741 19-144, limits assumed); experiment: Octet tandem binning; saturating Ab f5 19844-R4M-P3-E06
T1 construct: Antigen of the Octet tandem binning, loaded on biosensors at 100 nM; also called huSdc2; hSdc2

human Sdc2 [2] = target: T1, human Sdc2; experiment: Octet tandem binning; Buffer in place of a saturating Ab
human Sdc2 [3] = target: T1, human Sdc2; experiment: Octet BLI, heading box over the sensorgram
Method: (§1) In order to characterize the binding affinity and in vivo/in vitro functional ability of the twelve clones generated by the previous studies and disclosed in Table 1, a series of assays were performed on each clone. These assays measured the affinity of each antibody clone for human, pig, and mouse Sdc2 using an Octet® binding assay system. Additionally, the functional ability of each clone to inhibit VEGFA-driven permeability (see Santiago, et al. (2021) J Am Heart Assoc. 10(18):e020521) was assessed in two therapeutic settings: a “prevention” study in which three concentrations of antibody (5 μg/ml, 10 μg/ml, 15 μg/ml, 20 μg/ml, and/or 40 μg/ml depending on the study) were pre-incubated for an hour before administration of 100 ng/ml of VEGFA, and a “treatment” study in which 3 hours of pre-treatment with 100 ng/ml VEGFA were followed by treatment with antibody at 20 μg/ml or 40 μg/ml. Results are shown for 8-G17 in FIG. 8 and FIG. 9, 20-H19-AB in FIG. 10 and FIG. 11 (FIG. 12 for monkey ECs), R3-P3-C11 in FIG. 13 and FIG. 14, R4M-P3-E06 in FIG. 15 and FIG. 16, R3-P3-E09 in FIG. 17 and FIG. 18, R3-P1-C02 in FIG. 19 and FIG. 20, R3-P3-A12 in FIG. 21 and FIG. 22, R4M-P3-A12 in FIG. 23 and FIG. 24, and R4M-P1-A10 in FIG. 25 and FIG. 26.

mouse Sdc2 [4] = target: T2, mouse Sdc2 (mouse, UniProt P43407 19-145, limits assumed); experiment: Octet BLI, heading box over the sensorgram
T2 construct: Immobilised on Maxisorp plates for panning and ELISA; also called mSdc2; moSdc2
Method: as §1

[5] = target: human Sdc2 on Human Umbilical Vein Endothelial Cells (HUVEC) (human, UniProt P34741 19-201); experiment: cell-based or functional assay
mouse Sdc2 [6] = target: T2, mouse Sdc2; experiment: Octet BLI, HIS1K sensor loaded with moSdc2, antibody as sample; Full R2 0.9584
human Sdc2 [7] = target: T1, human Sdc2; experiment: Octet tandem binning; saturating Ab m7 19844-R3-P1-E07
human Sdc2 [8] = target: T1, human Sdc2; experiment: Octet tandem binning; saturating Ab f8 19844-R4M-P2-C02
human Sdc2 [9] = target: T1, human Sdc2; experiment: Octet tandem binning; saturating Ab f11 19838-20-H19-A

T2 sequence (P43407 19-145 limits assumed): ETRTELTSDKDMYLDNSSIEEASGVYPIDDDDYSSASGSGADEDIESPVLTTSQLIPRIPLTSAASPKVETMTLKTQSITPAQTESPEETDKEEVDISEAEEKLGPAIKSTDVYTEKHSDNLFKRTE
T1 sequence (P34741 19-144 limits assumed): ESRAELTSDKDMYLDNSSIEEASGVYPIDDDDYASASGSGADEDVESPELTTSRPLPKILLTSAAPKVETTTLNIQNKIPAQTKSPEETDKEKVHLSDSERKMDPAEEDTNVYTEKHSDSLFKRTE
human Sdc2 on Human Umbilical Vein Endothelial Cells (HUVEC), sequence (P34741 19-201 limits assumed): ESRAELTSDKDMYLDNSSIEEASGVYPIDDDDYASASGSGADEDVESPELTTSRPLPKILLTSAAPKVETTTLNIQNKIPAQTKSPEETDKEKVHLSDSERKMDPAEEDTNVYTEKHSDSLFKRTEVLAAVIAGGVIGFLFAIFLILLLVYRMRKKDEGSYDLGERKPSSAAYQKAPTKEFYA

raw competing-Ab binding signal (human Sdc2 [1]): 0.0642
raw competing-Ab binding signal (human Sdc2 [2]): 0.0926
Kd (human Sdc2 [3]): ~14 nM
Kd (mouse Sdc2 [4]): ~11.6 nM
% Inhibition of VEGFA-induced permeability at 24hrs (20ug/ml) [5]: 60%
Kd (mouse Sdc2 [6]): 11.6 nM
koff (mouse Sdc2 [6]): 0.00914 s⁻¹
kon (mouse Sdc2 [6]): 3.74e+06 M⁻¹ s⁻¹
raw competing-Ab binding signal (human Sdc2 [7]): 0.132
raw competing-Ab binding signal (human Sdc2 [8]): 0.0077
raw competing-Ab binding signal (human Sdc2 [9]): 0.165
B1: R4M-P3-A12 (antibody, human IgG1, kappa, V domains shown)
VH: EVQLVESGGGVVQPGGSLRLSCAASGFTFSDHYMSWIRQAPGKGLEWVSYLSGSGTSIYYADSVKGRFTISRDNAKKSLYLQMNSLRAEDTAVYYCARVGPAAGNAFDIWGQGTMVTVSS
VL: QSVLTQPPSASGTPGQRVTISCSGSSSNIGSNYVYWYQQLPGTAPKLLIYRNNQRPSGVPDRFSGSKSGTSASLAITGLQAEDEADYYCQSYDSSLSGVVFGGGTKLTVLR

From patent US20250282885A1 (VST BIO, published 2025)
